B1: Transcription elongation factor A N-terminal and central domain-containing protein, residues 30 to 77; numbered along this chain, Q8N8B7 (parent)
chain: LTELETIYVTKEHLQETDVVRAVYRVLKNCPSVALKKKAKCLLSKWKA
B2: Chromodomain-helicase-DNA-binding protein 4, residues 365 to 417; numbered along this chain, Q14839 (parent)
chain: YETDHQDYCEVCQQGGEIILCDTCPRAYHMVCLDPDMEKAPEGKWSCPHCEKE

Variants of: B1
Experiment: abundance fitness (aPCA) (normalised: wild type 0, dead -1); higher = more abundant; growth selection in yeast, the domain comes from the species named
Conditions: Homo sapiens

Abundance fitness, by site and new letter:
L27: C -0.994
T10: G -0.164, Y -0.771, Q 0.117, N -0.546, H -0.23, D -0.31, L -0.674, E -0.139, W -0.315, F -0.547
A34: L -0.279, M -0.163, I -0.826, C 0.149, W -0.176, T -0.161
S44: C -0.73, G -0.141, P -0.891, K -0.312
Y8: V -0.008, F -0.339, R -0.094, E 0.448, G 0.156
R25: Y -0.805, A -0.326, D -0.443, E -0.743, W -0.837, C -0.92, Q -0.038
D18: Y 0.057, R 0.24, G 0.354, M 0.384, P -0.154, W 0.172
A48: W -0.469, V -0.62, L -1.22
E3: C 0.159, W 0.305, T -0.464, H -0.696
V33: C 0.041, E -0.208, T -0.146
E12: A -0.492, W -0.71, C -0.79, N -0.34, Q -0.278
K45: Q -0.782, T -0.656, F 0.204, L -0.513, D -0.443
L1: W -0.554, Q 0.202, F -0.001
L14: V 0.172, G 0.252, R 0.21, Y -0.124
I7: F -0.323, T 0.192, D 0.203, R 0.008
E5: I -0.48, M -0.643, Y -0.604
V26: D -0.727, R 0.211, S -0.206, I -0.105
R21: H -0.067, Y -0.601, I -1.03, L -0.88, D -0.759, F -0.914, V -0.904
L42: G -1.05, H -1.02, D -0.894

Variants of: B2
Experiment: as above
Conditions: Homo sapiens

Abundance fitness: each site, then its substitutions
Y1: F 0.069, M 0.64, S 0.108, K 0.593, A 0.534, N -0.028, D -0.863, R 0.048, C 0.19, L -0.316, W 0.441, V 0.348
T3: R 0.024, M 0.19, P -0.225, E 0.074, Q -0.29, G 0.13, C 0.124, S 0.185, A -0.396, V 0.103, H -0.461, Y 0.034, D -0.022, N -0.106, K 0.205, F 0.059, W -0.182, I 0.111, L 0.141
H5: S 0.224, Q -0.111, G 0.158, T 0.349, V 0.208, C -0.083, A 0.283, W -0.23, N 0.12, P 0.19, R 0.193, I 0.092, K -0.044, D -0.801, F -0.059, M 0.41
Q6: A -0.269
E2: R 0.406, C 0.484, H 0.347, S 0.425, K 0.077, P 0.263, D 0.033, T 0.349, Q 0.654, L 0.386, I 0.176, M 0.621, A -0.143, G 0.102, W 0.297, Y 0.426
D4: W -0.173, F -0.031, E 0.1, Q 0.114, H 0.304, T -0.168, G 0.008, N -0.114, I -0.089, C 0.071, M 0.299, K 0.23, Y 0.004, S -0.127, A -0.066, L -0.003
